Results as given in patent US5156956A, “Transgultaminase” (Ajinomoto Co., Inc., priority 1987, dated 1992).

Tests used:
[1] = Measurement of BTGase activity (hydroxamate method); type: biochemical; conditions: freeze dried product prepared in Example 1
Procedure: Measurement of the activity of BTGase is carried out by performing a reaction using benzyloxycarbonyl-L-glutaminyl glycine and hydroxylamine as substrates in the absence of Ca^2+, forming an iron complex with the resulting hydroxamic acid in the presence of trichloroacetic acid, measuring absorption at 525 nm and determining the amount of hydroxamic acid by a calibration curve to calculate the activity. The BTGase activity is measured by the method described below, unless otherwise indicated.
To 0.05 ml of an enzyme solution is added 0.5 ml of Reagent A and they are mixed with each other. After reacting at 37° C. for 30 minutes, Reagent B is added thereto to discontinue the reaction and form an Fe complex. Thereafter, absorbance is measured at 525 nm. As a control, absorbance is measured after reacting a previously thermally inactivated enzyme solution in a similar manner and a difference in absorbance between the control and the enzyme solution is measured. Separately, a calibration curve is prepared using L-glutamic acid γ-monohydroxamio acid instead of the enzyme solution, and the amount of hydroxamic acid produced is determined by the difference in absorbance described above. An enzyme activity which produces 1 μmol of hydroxamic acid per 1 minute is defined as 1 unit.

[2] = tested on: Acid-precipitated soybean protein; assay: Gelation, test tube inversion method; type: biochemical; set-up: key: .smallcircle.: gelled; Δ: weakly gelled; x: remained as solution; conditions: BTGase 0.02 U/mg protein, 55° C., 1 h, MTGase 0.1 U/mg, 37° C.
Procedure: (§1) 1) The BTGase (freeze dried product, specific activity of 2.50 Units/mg protein) prepared in Example 1 was added to 5 ml of each of 5 and 10 wt. % solutions or suspensions of protein foodstuffs prepared by the method described in Example 1 of Published Unexamined Japanese Patent Application No. 149645/83 or purchased, namely, (1) αsi -casein, (2) Na-caseinate, (3) soybean 11S globulin, (4) soybean 7S globulin, (5) soybean protein isolate "Ajipron S-2" (manufactured by Ajinomoto Co., Inc.), (6) water-extracted soybean protein, (7) acid-precipitated soybean protein, (8) soybean protein particles, (9) soybean protein micelles and (10) gelatin in 0.02 U per 1 mg of protein followed by shake incubation at 55° C. for an hour. After allowing to stand at room temperature, test tubes with samples were turned upside down, whereby gelation was determined by noting whether the samples drifted down or not.
(§2) For purposes of comparison, the results of gelation ability test with MTGase are also shown. The amount of MTGase added was 0.1 U per 1 mg of substrate protein.

Soybean 11S globulin = assay: Gelation, test tube inversion method; type: biochemical; set-up: key: .smallcircle.: gelled; Δ: weakly gelled; x: remained as solution; conditions: BTGase 0.02 U/mg protein, 55° C., 1 h, MTGase 0.1 U/mg, 37° C.
Procedure: as §1, §2

Soybean 7S globulin = assay: Gelation, test tube inversion method; type: biochemical; set-up: key: .smallcircle.: gelled; Δ: weakly gelled; x: remained as solution; conditions: BTGase 0.02 U/mg protein, 55° C., 1 h, MTGase 0.1 U/mg, 37° C.
Procedure: as §1, §2

Rabbit myosin = assay: Gelation, test tube inversion method; type: biochemical; set-up: key: .smallcircle.: gelled; Δ: weakly gelled; x: remained as solution; conditions: BTGase 0.02 U/mg protein, 55° C., 1 h, MTGase 0.1 U/mg, 37° C.
Procedure: 2) Rabbit myosin was prepared as follows for use as a substrate for BTGase.
The concentration of protein was 1.5%. BTGase was added to the myosin under the same conditions as under 1) above to examine gelation ability.
as §2

Prawn myosin = assay: Gelation, test tube inversion method; type: biochemical; set-up: key: .smallcircle.: gelled; Δ: weakly gelled; x: remained as solution; conditions: 5 ml, 3.6 units of BTGase, 35° C., 35 minutes at maximum, MTGase 0.1 U/mg, 37° C., 1 h
Procedure: 3) Prawn myosin was prepared as follows for use as a substrate for BTGase.
The shell of a fresh (live) prawn (body length of about 5 cm) was peeled off and the prawn flection muscle was taken out. After mincing, the mince was washed with ice water and homogenized under cooling in the presence of 0.1 mM DTT and 0.1 mM PMSF. By centrifugation, actomyosin was extracted and separated therefrom. By further ultracentrifugation at 10^5 ×g for 60 minutes, actin was removed to give a myosin-rich fraction. Further dilution precipitation and ultracentrifugation were repeated to give purified prawn myosin. […] By immersing in a water bath at 35° C., the reaction was initiated and carried out for 35 minutes at maximum.
as §2

Gelatin = Gelatin gel after heating in boiling water bath; type: biochemical; set-up: key: x: complete solution; .smallcircle.: gelled condition (not dissolved even after heating); conditions: 0.02 U/mg protein, 37° C. 1 h, then boiling water bath 10 minutes
Procedure: 0.1M Tris-HCl buffer (pH 7.6) was added to gelatin (manufactured by Nitta Gelatin Co., Ltd.) so as to form 5.10 wt. % solution. Gelatin was completely dissolved at 60° C. for 3 minutes and the same BTGase as that of Example 4 was added to the solution in 0.02 U/mg protein. After thoroughly mixing, the mixture was reacted at 37° C. for an hour and then heated in a boiling water bath for 10 minutes. Immediately thereafter, the condition was observed.
For purposes of comparison, the system which was identically treated except for adding no BTGase was used as control.

[3] = Sausage: rheometer and organoleptic evaluation; conditions: 1 unit per 1 g of dry pork, 55° C. 2 h, then 80° C. 30 min
Procedure: Physical properties were measured with a rheometer (manufactured by Yamaden Co., Ltd.) and organoleptic evaluation (n=10) was performed. The amount of BTGase added was 1 unit per 1 g of dry pork. The enzyme reaction was carried out at 55° C. for 2 hours. After completion of the reaction, heating was performed at 80° C. for 30 minutes to make a product. As a control, BTGase-free product was used.

[4] = tested on: oxhide-derived atelo-collagen; assay: Gelation of atelo-collagen solutions; type: biochemical, ox; set-up: key: .smallcircle.: gelled; Δ: weakly gelled; x: remained as solution; conditions: 0.05 U/mg protein; for Gelation, Immediately After Completion of Incubation: 55° C. 60 minutes; for Gelation, After Heating at 100° C.: 100° C. 15 minutes; for Gelation, After Allowing to Stand for 60 Minutes: room temperature
Procedure: A necessary amount of oxhide-derived atelo-collagen powders (manufactured by Kouken K.K.) were taken in a test tube and 2 ml of 0.1M Tris-HCl buffer (pH 7.5) was added thereto. After maintaining in a water bath at 55° C. for 15 minutes, the mixture was stirred to prepare 3 to 10% atelo-collagen solutions. Before the solutions of high concentration were gelled due to cooling, BTGase was added thereto in 0.05 U/mg protein followed by incubation at 55° C. for 60 minutes. As a control for the all samples, 10% atelo-collagen solution with no BTGase added was also incubated likewise. Immediately after completion of the incubation, the system was allowed to stand at room temperature for 60 minutes. Then the system was further kept in a water bath of 100° C. for 15 minutes and then the condition in the test tube was observed.

B1: BTGase: microorganism-derived transglutaminase; in Examples 4-11 the freeze dried product prepared in Example 1 (S. mobaraense, i.e. BTG-1) (protein, UniProt P81453 77-407, looked up)
Protein-glutamine …: DSDDRVTPPAEPLDRMPDPYRPSYGRAETVVNNYIRKWQQVYSHRDGRKQQMTEEQREWLSYGCVGVTWVNSGQYPTNRLAFASFDEDRFKNELKNGRPRSGETRAEFEGRVAKESFDEEKGFQRAREVASVMNRALENAHDESAYLDNLKKELANGNDALRNEDARSPFYSALRNTPSFKERNGGNHDPSRMKAVIYSKHFWSGQDRSSSADKRKYGDPDAFRPAPGTGLVDMSRDRNIPRSPTSPGEGFVNFDYGWFGAQTEADADKTVWTHGNHYHAPNGSLGAMHVYESKFRNWSEGYSDFDRGAYVITFIPKSWNTAPDKVKQGWP
specific activity [1]: 2.50 Units/mg protein | Gelation, Acid-precipitated soybean protein 5% ([2]; 5%): .smallcircle. | Gelation, Acid-precipitated soybean protein 10% ([2]; 10%): .smallcircle. | Gelation, Soybean 11S globulin 5% (Soybean 11S globulin; 5%): .smallcircle. | Gelation, Soybean 11S globulin 10% (Soybean 11S globulin; 10%): .smallcircle. | Gelation, Soybean 7S globulin 5% (Soybean 7S globulin; 5%): .smallcircle. | Gelation, Soybean 7S globulin 10% (Soybean 7S globulin; 10%): .smallcircle. | Gelation, Rabbit myosin 1.5% (Rabbit myosin): .smallcircle. | Gelation, Prawn myosin 3.6% (Prawn myosin): .smallcircle. | Condition of 5% Gelatin, +BTG (Gelatin): .smallcircle. | Condition of 10% Gelatin, +BTG (Gelatin): .smallcircle. | Viscosity Coefficient [3]: 1.92 × 10^9 dyn.sec.cm^-2 | Gelation, Immediately After Completion of Incubation ([4]; 3% Solution): .smallcircle. | Gelation, After Heating at 100° C. ([4]; 3% Solution): .smallcircle. | Gelation, After Allowing to Stand for 60 Minutes ([4]; 3% Solution): .smallcircle. | Gelation, Immediately After Completion of Incubation ([4]; 5% Solution): .smallcircle. | Gelation, After Heating at 100° C. ([4]; 5% Solution): .smallcircle. | Gelation, After Allowing to Stand for 60 Minutes ([4]; 5% Solution): .smallcircle. | Gelation, Immediately After Completion of Incubation ([4]; 10% Solution): .smallcircle. | Gelation, After Heating at 100° C. ([4]; 10% Solution): .smallcircle. | Gelation, After Allowing to Stand for 60 Minutes ([4]; 10% Solution): .smallcircle.
